Assay [1] has as its target T1, Pbx1, in vitro translated protein (human, UniProt P40424). As to the kind of experiment: gel mobility shift, TSEII probe, reticulocyte lysate programmed with PBX RNA. From the text: Isl1 H.D., homeodomain of the lim domain factor Isl1. PBX interaction motif-Isl1 H.D., STF-1-Isl1 fusion protein containing STF-1 PBX interaction motif region (amino acid residues 110–138) fused to the Isl1 homeodomain. cdx3 H.D., homeodomain of the pancreatic homeobox protein cdx3 (amino acid residues 143–253). PBX interaction motif-cdx3, fusion protein containing STF-1 PBX interaction motif region (amino acid residues 110–138) fused to the cdx3 homeodomain (amino acid residues 176–253). PBX interaction motif-STF-1, STF-1 polypeptide containing the PBX interaction motif region (110–138) fused to the STF-1 homeodomain (amino acid residues 140–215). STF-1 H.D. STF-1 homeodomain alone without the PBX interaction motif region. […] Cooperativity with PBX tested with homeodomain fusion proteins shown over each lane. Monomeric and heterodimeric complexes as labeled.
(§1) Gel mobility shift assays were performed exactly as described previously (20) using 0.1 ng of end-labeled double stranded oligonucleotide whose sequences are presented in FIG. 2C. For off-rate analysis, the TSEII probe was first incubated with the proteins at room temperature for 30 minutes, then a 1000-fold excess of unlabeled TSEII oligonucleotide was added and aliquots were loaded at various time points on a running gel. In supershift assays, TU6 nuclear cell extract was preincubated with 1 µl of Pbx (11) or STF-antiserum (20) for 15 minutes at room temperature before adding the TSEII probe.

Assay [2] deals with T1, Pbx1, in vitro translated protein. As to the kind of experiment: gel mobility shift, TSEII probe. The method, then:
Deletion endpoints in mutant STF-1 polypeptides are indicated over each lane. For example, Δ1-70 indicates STF-1 polypeptide lacking residues 1–70. Hox 140–215, STF-1 homeodomain polypeptide. […] H.D., STF-1 homeodomain (amino acid residues 140–215). Full length STF-1 protein extends from amino acid residues 1–284.
as §1

The values below come from US5849493, “Screening assay for compounds stimulating somatostatin transcription factor -1 binding to an STF-1 binding site” (Research Development Foundation, dated 1997).

B1: GST-Isl1 H.D. fusion protein (other)
chain: KQPEKTTRVRTVLNEKQLHTLRTCYAANPRPDALMKEQLVEMTGLSPRVIRVWFQNKRCKDKKRSIMMKQLQQ
With B1, in assay [1], the binding result is “no binding”.

B2: STF-1 homeodomain polypeptide Hox 140-215 (other)
chain: not shown
For the molecule B2, the binding result in assay [2] was “no binding”.

B3: GST-PBX interaction motif-Isl1 H.D. fusion protein (other)
chain: EEPSRVHLPFPWMKSTKAHAWKSQWAGGAKQPEKTTRVRTVLNEKQLHTLRTCYAANPRPDALMKEQLVEMTGLSPRVIRVWFQNKRCKDKKRSIMMKQLQQ
B3: the binding result in assay [1] was “no binding”.

B4: GST-PBX interaction motif-cdx3 fusion protein (other)
chain: EEPSRVHLPFPWMKSTKAHAWKSQWAGGALGSQVKTRTKDKYRVVYTDHQRLELEKEFHYSRYITIRRKAELAATLGLSERQVKIWFQNRRAKERKINKKKLQQQQQ
On to B4, for which, in assay [1], the binding result is listed as “no binding”.

B5: GST-cdx3 H.D. fusion protein (other)
chain: PPGPAATGAAEQLSPSGQRRNLCEWMRKPAQPSLGSQVKTRTKDKYRVVYTDHQRLELEKEFHYSRYITIRRKAELAATLGLSERQVKIWFQNRRAKERKINKKKLQQQQQ
Take B5: the binding result in assay [1] was “no binding”.
